From patent US20130177960

How the values were obtained:
Test in all cases: cell_activity
SBS34077 ZFN (synthetic) = details: pair with 33115, D17 cells
SBS33115 ZFN (synthetic) = details: pair with 34077, D17 cells
SBS35393 ZFN (synthetic) = details: pair with 35361
SBS30724 ZFN (synthetic) = details: pair with 30725, AAV in mouse liver, Cel-I
SBS30872 ZFN (synthetic) = details: pair with 30873, AAV8 in mouse liver, Cel-I; up to 17% over both pairs
SBS36806 ZFN (synthetic) = details: pair with 35396, RF/6A
SBS36808 ZFN (synthetic) = details: pair with 35396, RF/6A
SBS36813 ZFN (synthetic) = details: pair with 35396, RF/6A
SBS36819 ZFN (synthetic) = details: pair with 35396, RF/6A
SBS36820 ZFN (synthetic) = details: pair with 35396, RF/6A
SBS30873 ZFN (synthetic) = details: pair with 30872, AAV8 in mouse liver, Cel-I; up to 17% over both pairs
SBS30725 ZFN (synthetic) = details: pair with 30724, AAV in mouse liver, Cel-I
SBS35370 ZFN (synthetic) = details: pair with 35396

Q: “AAGTCATGTGGAGAGAAACACAAAGAGT (double strand) [34077 site]” was tested. Which activity (SBS34077 ZFN (synthetic)) did it give?
A: 30 % indels

Q: For “AGTATTCGTTTGCTCCAAAATATTTGCC (double strand) [33115 site]”, which activity (SBS33115 ZFN (synthetic)) is on record?
A: 30 % indels

Q: “CCTATCCATTGCACTATGCTTTATTTAA (double strand) [human locus 2 left site (conserved in rhesus)]” was tested. Which activity (% mutated targets) (SBS35393 ZFN (synthetic)) did it give?
A: 18

Q: Which activity (SBS30724 ZFN (synthetic)) does the source give for “CTGAAGGTGGCAATGGTTCCTCTCTGCT (double strand) [30724 site]” here?
A: < 21 % indels

Q: With “CTTGGCTGTGTAGGAGGGGAGTAGCAGT (double strand) [30872 site]” as the sequence, how does the activity (SBS30872 ZFN (synthetic)) read?
A: < 17 % indels

Q: Which activity (SBS36806 ZFN (synthetic)) does the source give for “TTAGGGACAGTTATGAATTCAATCTTCA (double strand) [rhesus partner site]” here?
A: 20.5 % indels

Q: And the activity (SBS36808 ZFN (synthetic))?
A: 26 % indels

Q: And the activity (SBS36813 ZFN (synthetic))?
A: 21 % indels

Q: What about the activity (SBS36819 ZFN (synthetic)) of the same sequence?
A: 30 % indels

Q: What about the activity (SBS36820 ZFN (synthetic)) of the same sequence?
A: 23 % indels

Q: With “TTCCTAAGTTGGCAGTGGCATGCTTAAT (double strand) [30873 site]” as the sequence, how does the activity (SBS30873 ZFN (synthetic)) read?
A: < 17 % indels

Q: How did the activity (SBS30725 ZFN (synthetic)) turn out when “TTTCCTGTAACGATCGGGAACTGGCATC (double strand) [30725 site]” was run?
A: < 21 % indels

Q: For “TTTGGGATAGTTATGAATTCAATCTTCA (double strand) [human locus 2 partner site]”, which activity (% mutated targets) (SBS35370 ZFN (synthetic)) is on record?
A: 22
